Reference: patent publication US10081665B2, “Peptides and combination of peptides for use in immunotherapy against various tumors” (immatics biotechnologies GmbH, priority 2015, dated 2018)

Biological target: HLA-A*02:01 (Homo sapiens, UniProt P04439, D140Y/D185E/D98H/E176V/E277Q/G131W/G231S/I119V/I121R/I166T/I218V/L300P/L318F/N151K/N90K/P208A/P217A/Q86G/Q94H/R138H/R169H/T345S)
Test: MHC binding assay (UV-ligand exchange, beta2m ELISA)
Conditions: binding to HLA-A*02:01, β2m ELISA
Excerpt: Candidate peptides for T cell based therapies according to the present invention were further tested for their MHC binding capacity (affinity). The individual peptide-MHC complexes were produced by UV-ligand exchange, where a UV-sensitive peptide is cleaved upon UV-irradiation, and exchanged with the peptide of interest as analyzed. Only peptide candidates that can effectively bind and stabilize the peptide-receptive MHC molecules prevent dissociation of the MHC complexes. To determine the yield of the exchange reaction, an ELISA was performed based on the detection of the light chain (β2m) of stabilized MHC complexes. The assay was performed as generally described in Rodenko et al. (Rodenko et al., 2006).
96 well MAXISorp plates (NUNC) were coated over night with 2 ug/ml streptavidin in PBS at room temperature, washed 4× and blocked for 1 h at 37° C. in 2% BSA containing blocking buffer. Refolded HLA-A*02:01/MLA-001 monomers served as standards, covering the range of 15-500 ng/ml. Peptide-MHC monomers of the UV-exchange reaction were diluted 100 fold in blocking buffer. Samples were incubated for 1 h at 37° C., washed four times, incubated with 2 ug/ml HRP conjugated anti-82m for 1 h at 37° C., washed again and detected with TMB solution that is stopped with […]. Absorption was measured at 450 nm. Candidate peptides that show a high exchange yield (preferably higher than 50%, most preferred higher than 75%) are generally preferred for a generation and production of antibodies or fragments thereof, and/or T cell receptors or fragments thereof, as they show sufficient avidity to the MHC molecules and prevent dissociation of the MHC complexes.

Row | Substance | Peptide exchange (MHC class I binding score, peptide exchange yield)
1 | 1 (KLQEKIQEL; listed as Homo sapiens) [compound 1] | ++++ (≥75% = ++++)
2 | 3 (RVIDDSLVVGV; listed as Homo sapiens) [compound 3] | +++ (≥50 = +++)
3 | 5 (GLVDIMVHL; listed as Homo sapiens) [compound 5] | +++ (≥50 = +++)
4 | 6 (FLNAIETAL; listed as Homo sapiens) [compound 6] | ++++ (≥75% = ++++)
5 | 7 (ALLQALMEL; listed as Homo sapiens) [compound 7] | +++ (≥50 = +++)
6 | 10 (QLIEKNWLL; listed as Homo sapiens) [compound 10] | +++ (≥50 = +++)
7 | 11 (LLDPKTIFL; listed as Homo sapiens) [compound 11] | +++ (≥50 = +++)
8 | 12 (RLLDPKTIFL; listed as Homo sapiens) [compound 12] | +++ (≥50 = +++)
9 | 13 (RLHDENILL; listed as Homo sapiens) [compound 13] | +++ (≥50 = +++)
10 | 16 (SLADLSLLL; listed as Homo sapiens) [compound 16] | +++ (≥50 = +++)
11 | 19 (KVFELDLVTL; listed as Homo sapiens) [compound 19] | ++ (≥20% = ++)
12 | 20 (ALVEKGEFAL; listed as Homo sapiens) [compound 20] | ++ (≥20% = ++)
13 | 21 (YLMDDFSSL; listed as Homo sapiens) [compound 21] | +++ (≥50 = +++)
14 | 22 (LMYPYIYHV; listed as Homo sapiens) [compound 22] | +++ (≥50 = +++)
15 | 23 (ALLSPLSLA; listed as Homo sapiens) [compound 23] | +++ (≥50 = +++)
16 | 24 (KVWSDVTPL; listed as Homo sapiens) [compound 24] | +++ (≥50 = +++)
17 | 25 (LLWGHPRVALA; listed as Homo sapiens) [compound 25] | +++ (≥50 = +++)
18 | 26 (VLDGKVAVV; listed as Homo sapiens) [compound 26] | +++ (≥50 = +++)
19 | 28 (IKVTDPQLLEL; listed as Homo sapiens) [compound 28] | ++ (≥20% = ++)
20 | 30 (IITEVITRL; listed as Homo sapiens) [compound 30] | +++ (≥50 = +++)
21 | 31 (GLLETTGLLAT; listed as Homo sapiens) [compound 31] | +++ (≥50 = +++)
22 | 33 (TLDRNSLYV; listed as Homo sapiens) [compound 33] | ++ (≥20% = ++)
23 | 36 (TVLQELINV; listed as Homo sapiens) [compound 36] | +++ (≥50 = +++)
24 | 37 (QIVELIEKI; listed as Homo sapiens) [compound 37] | ++ (≥20% = ++)
25 | 38 (VLQQESNFL; listed as Homo sapiens) [compound 38] | ++ (≥20% = ++)
26 | 40 (KIWEELSVLEV; listed as Homo sapiens) [compound 40] | +++ (≥50 = +++)
27 | 41 (IVTEIISEI; listed as Homo sapiens) [compound 41] | +++ (≥50 = +++)
28 | 42 (KQMSISTGL; listed as Homo sapiens) [compound 42] | ++ (≥20% = ++)

Other lines, results leading:

Row | Peptide exchange (MHC class I binding score, peptide exchange yield) | Substance
29 | +++ (≥50 = +++) | 44 (AVFNLVHVV; listed as Homo sapiens) [compound 44]
30 | +++ (≥50 = +++) | 45 (FLPVSVVYV; listed as Homo sapiens) [compound 45]
31 | +++ (≥50 = +++) | 47 (GLNGFNVLL; listed as Homo sapiens) [compound 47]
32 | +++ (≥50 = +++) | 48 (KISDFGLATV; listed as Homo sapiens) [compound 48]
33 | ++ (≥20% = ++) | 49 (KLIGNIHGNEV; listed as Homo sapiens) [compound 49]
34 | ++ (≥20% = ++) | 51 (LDSEALLTL; listed as Homo sapiens) [compound 51]
35 | ++ (≥20% = ++) | 52 (TIGIPFPNV; listed as Homo sapiens) [compound 52]
36 | + (≥10% = +) | 53 (AQHLSTLLL; listed as Homo sapiens) [compound 53]
37 | +++ (≥50 = +++) | 54 (YLVPGLVAA; listed as Homo sapiens) [compound 54]
38 | +++ (≥50 = +++) | 55 (HLFDKIIKI; listed as Homo sapiens) [compound 55]
39 | ++ (≥20% = ++) | 57 (TLYPGRFDYV; listed as Homo sapiens) [compound 57]
40 | +++ (≥50 = +++) | 58 (HLLGEGAFAQV; listed as Homo sapiens) [compound 58]
41 | +++ (≥50 = +++) | 59 (ALADGIKSFLL; listed as Homo sapiens) [compound 59]
42 | +++ (≥50 = +++) | 60 (YLFSQGLQGL; listed as Homo sapiens) [compound 60]
43 | +++ (≥50 = +++) | 61 (ALYPKEITL; listed as Homo sapiens) [compound 61]
44 | +++ (≥50 = +++) | 62 (SLVENIHVL; listed as Homo sapiens) [compound 62]
45 | +++ (≥50 = +++) | 63 (KLLPMVIQL; listed as Homo sapiens) [compound 63]
46 | ++ (≥20% = ++) | 64 (SLYAGSNNQV; listed as Homo sapiens) [compound 64]
47 | ++ (≥20% = ++) | 65 (SLSEKSPEV; listed as Homo sapiens) [compound 65]
48 | +++ (≥50 = +++) | 67 (FLIENLLAA; listed as Homo sapiens) [compound 67]
49 | +++ (≥50 = +++) | 68 (QLMNLIRSV; listed as Homo sapiens) [compound 68]
50 | ++ (≥20% = ++) | 69 (LKVLKADVVL; listed as Homo sapiens) [compound 69]
51 | ++ (≥20% = ++) | 70 (GLTEKTVLV; listed as Homo sapiens) [compound 70]
52 | ++ (≥20% = ++) | 71 (HMSGKLTNV; listed as Homo sapiens) [compound 71]
